Laboratory results taken from the supplement of paper PMC11246515.
± gives the standard deviation of the averaged measurements.

Test: total protein half-life in vivo (active degradation + dilution); higher = more stable protein
[1] = E. coli NCM3722 delta-clpP delta-lon delta-hslV, growth: N-lim chemostat, doubling time 6 h
[2] = E. coli NCM3722 delta-clpP, growth: N-lim chemostat, doubling time 6 h
[3] = E. coli NCM3722 delta-lon, growth: N-lim chemostat, doubling time 6 h
[4] = E. coli NCM3722 delta-smpB, growth: N-lim chemostat, doubling time 6 h
[5] = wild type E. coli NCM3722, growth: C-lim chemostat, doubling time 6 h
[6] = wild type E. coli NCM3722, growth: C-lim chemostat, doubling time 12 h
[7] = wild type E. coli NCM3722, growth: N-lim chemostat, doubling time 12 h
[8] = wild type E. coli NCM3722, growth: P-lim chemostat, doubling time 6 h
[9] = wild type E. coli NCM3722, growth: P-lim chemostat, doubling time 12 h
[10] = E. coli NCM3722 delta-hslV, growth: N-lim chemostat, doubling time 6 h
[11] = wild type E. coli NCM3722, growth: N-lim chemostat, doubling time 6 h
[12] = wild type E. coli NCM3722, growth: C-lim chemostat, doubling time 3 h

| Sequence | total protein half-life in vivo [1] [h] | total protein half-life in vivo [2] [h] | total protein half-life in vivo [3] [h] | total protein half-life in vivo [4] [h] | total protein half-life in vivo [5] [h] | total protein half-life in vivo [6] [h] | total protein half-life in vivo [7] [h] | total protein half-life in vivo [8] [h] | total protein half-life in vivo [9] [h] | total protein half-life in vivo [10] [h] | total protein half-life in vivo [11] [h] | total protein half-life in vivo [12] [h] |
| --- | --- | --- | --- | --- | --- | --- | --- | --- | --- | --- | --- | --- |
| MEDLNVVDSINGAGSWLVANQALLLSYAVNIVAALAIIIVGLIIARMISNAVNRLMISRKIDATVADFLSALVRYGIIAFTLIAALGRVGVQTASVIAVLGAAGLAVGLALQGSLSNLAAGVLLVMFRPFRAGEYVDLGGVAGTVLSVQIFSTTMRTADGKIIVIPNGKIIAGNIINFSREPVRRNEFIIGVAYDSDIDQVKQILTNIIQSEDRILKDREMTVRLNELGASSINFVVRVWSNSGDLQNVYWDVLERIKREFDAAGISFPYPQMDVNFKRVKEDKAA [P0C0S1] | 6.89 ± 0.37 | 7.53 ± 0.59 | 6.91 ± 1.2 | 5.91 ± 0.16 | 6.24 ± 0.12 | 12.81 ± 0.023 | 12.7 ± 0.82 | 6.423 ± 0.022 | 13.2 ± 0.67 |  |  |  |
| MEFLMDPSIWAGLLTLVVLEIVLGIDNLVFIAILADKLPPKQRDKARLLGLSLALIMRLGLLSLISWMVTLTKPLFTVMDFSFSGRDLIMLFGGIFLLFKATTELHERLENRDHDSGHGKGYASFWVVVTQIVILDAVFSLDAVITAVGMVNHLPVMMAAVVIAMAVMLLASKPLTRFVNQHPTVVVLCLSFLLMIGLSLVAEGFGFHIPKGYLYAAIGFSIIIEVFNQIARRNFIRHQSTLPLRARTADAILRLMGGKRQANVQHDADNPMPMPIPEGAFAEEERYMINGVLTLASRSLRGIMTPRGEISWVDANLGVDEIREQLLSSPHSLFPVCRGELDEIIGIVRAKELLVALEEGVDVAAIASASPAIIVPETLDPINLLGVLRRARGSFVIVTNEFGVVQGLVTPLDVLEAIAGEFPDADETPEIITDGDGWLVKGGTDLHALQQALDVEHLADDDDIATVAGLVISANGHIPRVGDVIDVGPLHITIIEANDYRVDLVRIVKEQPAHDEDE [P0AEC0] | 6.99 ± 0.2 | 6.691 ± 0.015 | 6.27 ± 0.49 | 5.4 ± 0.28 | 5.88 ± 0.19 | 12.3 ± 0.92 | 14.2 ± 0.73 | 6.06 ± 0.7 | 12.2 ± 1.3 | 6.46 ± 0.09 | 6.71 ± 0.84 |  |
| MEFSFSPKRLVVAVAAALPLMASAADTPSTATARKGFAGYDHPNQYLVKPATTIADNMMPVMQHPAQDKETQQKLAELEKKTGKKPNVVVFLLDDVGWMDVGFNGGGVAVGNPTPDIDAVASQGLILTSAYSQPSSSPTRATILTGQYSIHHGILMPPMYGQPGGLQGLTTLPQLLHDQGYVTQAIGKWHMGENKESQPQNVGFDDFRGFNSVSDMYTEWRDVHVNPEVALSPDRSEYIKQLPFSKDDVHAVRGGEQQAIADITPKYMEDLDQRWMDYGVKFLDKMAKSDKPFFLYYGTRGCHFDNYPNAKYAGSSPARTSYGDCMVEMNDVFANLYKTLEKNGQLDNTLIVFTSDNGPEAEVPPHGRTPFRGAKGSTWEGGVRVPTFVYWKGMIQPRKSDGIVDLADLFPTALDLAGHPGAKVANLVPKTTFIDGVDQTSFFLGTNGQSNRKAEHYFLNGKLAAVRMDEFKYHVLIQQPYAYTQSGYQGGFTGTVMQTAGSSVFNLYTDPQESDSIGVRHIPMGVPLQTEMHAYMEILKKYPPRAQIKSD |  |  |  |  |  |  |  |  |  |  | 3.56 |  |
| MEFSPPLQRATLIQRYKRFLADVITPDGRELTLHCPNTGAMTGCATPGDTVWYSTSDNTKRKYPHTWELTQSQSGAFICVNTLWANRLTKEAILNESISELSGYSSLKSEVKYGAERSRIDFMLQADSRPDCYIEVKSVTLAENEQGYFPDAVTERGQKHLRELMSVAAEGQRAVIFFAVLHSAITRFSPARHIDEKYAQLLSEAQQRGVEILAYKAEISAEGMALKKSLPVTL [P0A823] | 6.44 ± 0.13 | 5.88 ± 0.28 | 5.97 ± 0.26 | 5.41 ± 0.73 | 6.23 ± 0.38 | 11.2 ± 0.24 | 10.2 ± 0.88 | 5.67 ± 0.24 | 13.5 ± 1.4 |  | 5.71 ± 0.11 | 3.39 ± 0.092 |
| MEFSVKSGSPEKQRSACIVVGVFEPRRLSPIAEQLDKISDGYISALLRRGELEGKPGQTLLLHHVPNVLSERILLIGCGKERELDERQYKQVIQKTINTLNDTGSMEAVCFLTELHVKGRNNYWKVRQAVETAKETLYSFDQLKTNKSEPRRPLRKMVFNVPTRRELTSGERAIQHGLAIAAGIKAAKDLGNMPPNICNAAYLASQARQLADSYSKNVITRVIGEQQMKELGMHSYLAVGQGSQNESLMSVIEYKGNASEDARPIVLVGKGLTFDSGGISIKPSEGMDEMKYDMCGAAAVYGVMRMVAELQLPINVIGVLAGCENMPGGRAYRPGDVLTTMSGQTVEVLNTDAEGRLVLCDVLTYVERFEPEAVIDVATLTGACVIALGHHITGLMANHNPLAHELIAASEQSGDRAWRLPLGDEYQEQLESNFADMANIGGRPGGAITAGCFLSRFTRKYNWAHLDIAGTAWRSGKAKGATGRPVALLAQFLLNRAGFNGEE | 6.37 ± 0.15 | 6.34 ± 0.31 | 7.01 ± 0.64 | 5.81 ± 0.16 | 6.45 ± 0.3 | 11.7 ± 1 | 12.7 ± 1.1 | 6.33 ± 0.09 | 12.7 ± 0.79 | 6.11 ± 0.078 | 6.215 ± 0.053 | 3.38 ± 0.097 |
